Data from patent US20090208447A1 (MEDIGENE, published 2009).
Substitutions are numbered along the chain they refer to.

B1: SEQ ID NO 62 (receptor)
chain: MHLPKPTLWAEPGSVITMDQPVTLRCQGGQETQEYRLYREKKTAPWITRIPQELVKKGQFPIPSITWEHAGRYRCYYGSDTSQWSASSDPLELVVTGVYIKPTLSAQPSPVVNSGGNVTLQCDSQVAFDGFILCKEGEDEHPQCLNSQPHARGSSRAIFSVGPVSPSRRWWYRCYAYDSNSPYEWSLPSDLLELDVDG
B2: SEQ ID NO 73 (receptor)
chain: B1 chain with Y76V, Y77I, G78Q, S79R, D80G, S82A, Q83G, W84R, A86E
B3: SEQ ID NO 67 (receptor)
chain: B1 chain with M18L, D19G, Q20S
B4: SEQ ID NO 69 (receptor)
chain: B1 chain with M18L, D19Q, Q20S
B5: SEQ ID NO 68 (receptor)
chain: B1 chain with M18L, D19R, Q20S
B6: SEQ ID NO 71 (receptor)
chain: B1 chain with S79T, D80Q, S82A, Q83G, W84R, A86E
B7: SEQ ID NO 64 (receptor)
chain: B1 chain with R49L, E140G, R173W
B8: SEQ ID NO 77 (receptor)
chain: B1 chain with L145D
B9: SEQ ID NO 72 (receptor)
chain: B1 chain with Y76M, Y77Q, G78Y, S79T, D80L, S82A, Q83G, W84R, A86E
B10: SEQ ID NO 65 (receptor)
chain: B1 chain with K41R
B11: SEQ ID NO 74 (receptor)
chain: B1 chain with S79G, D80Q, T81E, S82G, Q83A, W84R, A86E
B12: SEQ ID NO 66 (receptor)
chain: B1 chain with M18L, D19G
B13: SEQ ID NO 63 (receptor)
chain: B1 chain with W171R
B14: SEQ ID NO 75 (receptor)
chain: B1 chain with S79T, D80Q
B15: SEQ ID NO 70 (receptor)
chain: B1 chain with M18L, D19E, Q20S
B16: SEQ ID NO 60 (receptor)
chain: MGHLPKPTLWAEPGSVITMDQPVTLRCQGGQETQEYRLYREKKTAPWITRIPQELVKKGQFPIPSITWEHAGRYRCIGRSQTSQWSASSDPLELVVTGIYLAPTLSAQPSPVVNSGGNVTLQCDSQVAFDGFILCKEGEDEHPQCLNSQPHARGSSRAIFSVGPVSPSRRWWYRCYAYDSNSPYEWSLPSDLLELLVL
B17: SEQ ID NO 61 (receptor)
chain: B16 chain with M19L, D20G
B18: SEQ ID NO 26 (receptor)
chain: MGHLPKPTLWAEPGSVITQGSPVTLRCQGGQETQEYRLYREKKTAPWITRIPQELVKKGQFPIPSITWEHAGRYRCMQYTLTAGRSESSDPLELVVTGVYIKPTLSAQPSPVVNSGGNVTLQCDSQVAFDGFILCKEGEDEHPQCLNSQPHARGSSRAIFSVGPVSPSRRWWYRCYAYDSNSPYEWSLPSDLLELLVL
B19: SEQ ID NO 55 (receptor)
chain: B18 chain with M77Y, Q78Y, Y79G, T80S, L81D, V99I, I101Q
B20: SEQ ID NO 42 (receptor)
chain: B18 chain with Q19L, S21Q, M77Y, Q78Y, Y79G, T80S, L81D, S168G
B21: SEQ ID NO 43 (receptor)
chain: B18 chain with M77Y, Q78Y, Y79G, T80S, L81D, S168G
B22: SEQ ID NO 31 (receptor)
chain: MGHLPKPTLWAEPGSVITMDQPVTLRCQGGQETQEYRLYREKKTAPWITRIPQELVKKGQFPIPSITWEHAGRYRCYYGSQGGLRSESSDPLELVVTGVYIKPTLSAQPSPVVNSGGNVTLQCDSQVAFDGFILCKEGEDEHPQCLNSQPHARGSSRAIFSVGPVSPGRRWWYRCYAYDSNSPYEWSLPSDLLELLVL
B23: SEQ ID NO 34 (receptor)
chain: B18 chain with Q19M, G20D, S21Q
B24: SEQ ID NO 36 (receptor)
chain: B18 chain with M77Y, Q78Y, Y79G, T80S, L81D, V99I, I101L, K102A
B25: SEQ ID NO 56 (receptor)
chain: B16 chain with I77Y, G78Y, R79G, Q81D, S83A, Q84G, W85R, A87E
B26: SEQ ID NO 28 (receptor)
chain: B22 chain with M19Q, D20G, Q21S, V99A, G168S
B27: SEQ ID NO 59 (receptor)
chain: B16 chain with M19L, D20G, I77Y, G78Y, R79G, Q81D
B28: SEQ ID NO 54 (receptor)
chain: B18 chain with M77Y, Q78Y, Y79G, T80S, L81D, V99I, I101K, K102Q, S168G
B29: SEQ ID NO 47 (receptor)
chain: B22 chain with M19Q, D20G, Q21S, S80G, G82E, L84A, G168S
B30: SEQ ID NO 30 (receptor)
chain: B18 chain with V99A
B31: SEQ ID NO 45 (receptor)
chain: B18 chain with M77V, Q78G, Y79W, T80A, L81V
B32: SEQ ID NO 53 (receptor)
chain: B18 chain with M77Y, Q78Y, Y79G, T80S, L81D, V99I, I101L, K102Q, S168G
B33: SEQ ID NO 32 (receptor)
chain: B22 chain with S80T, G82T, G83A, L84G
B34: SEQ ID NO 41 (receptor)
chain: B22 chain with M19V, D20G, Q81D, G82T, G83A, L84G
B35: SEQ ID NO 37 (receptor)
chain: B18 chain with M77Y, Q78Y, Y79G, T80S, L81D, V99I, I101K, K102A
B36: SEQ ID NO 50 (receptor)
chain: B18 chain with M77Y, Q78Y, Y79G, T80S, L81D, V99I, I101K, K102A, S168G
B37: SEQ ID NO 52 (receptor)
chain: B18 chain with M77Y, Q78Y, Y79G, T80S, L81D, V99I, I101Q, K102A, S168G
B38: SEQ ID NO 29 (receptor)
chain: B18 chain with M77Y, Q78Y, Y79G, L81Q, V99A
B39: SEQ ID NO 33 (receptor)
chain: B18 chain with Q19M, G20D, S21Q, M77V, Q78I, Y79Q, T80R, L81G
B40: SEQ ID NO 38 (receptor)
chain: B18 chain with M77Y, Q78Y, Y79G, T80S, L81D, V99I, I101Q, K102A
B41: SEQ ID NO 51 (receptor)
chain: B18 chain with M77Y, Q78Y, Y79G, T80S, L81D, V99I, I101Q, K102R, S168G
B42: SEQ ID NO 58 (receptor)
chain: B16 chain with I77Y, G78Y, R79G, Q81D
B43: SEQ ID NO 39 (receptor)
chain: B22 chain with M19Q, D20G, Q21A, Q81D, G82T, G83A, L84G
B44: SEQ ID NO 27 (receptor)
chain: B18 chain with M77Y, Q78Y, Y79G, T80S, L81D, A83S, G84Q, R85W, E87A
B45: SEQ ID NO 44 (receptor)
chain: B18 chain with I66V, M77Y, Q78Y, Y79G, T80S, L81D
B46: SEQ ID NO 57 (receptor)
chain: B16 chain with M19L, D20G, I77Y, G78Y, R79G, Q81D, S83A, Q84G, W85R, A87E
B47: SEQ ID NO 49 (receptor)
chain: B18 chain with W47Q, M77Y, Q78Y, Y79G, T80S, L81D, I101V, K102A, S168G
B48: SEQ ID NO 35 (receptor)
chain: B18 chain with M77Y, Q78Y, Y79G, T80S, L81D, V99I, I101R, K102Q
B49: SEQ ID NO 40 (receptor)
chain: B18 chain with S21R, M77Y, Q78Y, Y79G, T80S, L81D
B50: SEQ ID NO 48 (receptor)
chain: B18 chain with M77Q, Q78G, Y79V, T80S, L81Q

biological target: HLA-A*0201 loaded with the Carcinoembryonic antigen (CEA)-derived … peptide (biotinylated on the C-terminal biotinylation tag); assay: SPR (Biacore), Example 4

Row | Binder | Kd | koff
1 | B1 | ≤ 1000 nM | ≤ 2 s⁻¹
2 | B2 | ≤ 1000 nM | ≤ 2 s⁻¹
3 | B3 | ≤ 1000 nM | ≤ 2 s⁻¹
4 | B4 | ≤ 1000 nM | ≤ 2 s⁻¹
5 | B5 | ≤ 1000 nM | ≤ 2 s⁻¹
6 | B6 | ≤ 1000 nM | ≤ 2 s⁻¹
7 | B7 | ≤ 1000 nM | ≤ 2 s⁻¹
8 | B8 | ≤ 1000 nM | ≤ 2 s⁻¹
9 | B9 | ≤ 1000 nM | ≤ 2 s⁻¹
10 | B10 | ≤ 1000 nM | ≤ 2 s⁻¹
11 | B11 | ≤ 1000 nM | ≤ 2 s⁻¹
12 | B12 | ≤ 1000 nM | ≤ 2 s⁻¹
13 | B13 | ≤ 1000 nM | ≤ 2 s⁻¹
14 | B14 | ≤ 1000 nM | ≤ 2 s⁻¹
15 | B15 | ≤ 1000 nM | ≤ 2 s⁻¹
16 | B16 | ≤ 1000 nM | ≤ 2 s⁻¹
17 | B17 | ≤ 1000 nM | ≤ 2 s⁻¹
18 | B18 | ≤ 1000 nM | ≤ 2 s⁻¹
19 | B19 | ≤ 1000 nM | ≤ 2 s⁻¹
20 | B20 | ≤ 1000 nM | ≤ 2 s⁻¹
21 | B21 | ≤ 1000 nM | ≤ 2 s⁻¹
22 | B22 | ≤ 1000 nM | ≤ 2 s⁻¹
23 | B23 | ≤ 1000 nM | ≤ 2 s⁻¹
24 | B24 | ≤ 1000 nM | ≤ 2 s⁻¹
25 | B25 | ≤ 1000 nM | ≤ 2 s⁻¹

Row | Binder | Kd | koff
26 | B26 | ≤ 1000 nM | ≤ 2 s⁻¹
27 | B27 | ≤ 1000 nM | ≤ 2 s⁻¹
28 | B28 | ≤ 1000 nM | ≤ 2 s⁻¹
29 | B29 | ≤ 1000 nM | ≤ 2 s⁻¹
30 | B30 | ≤ 1000 nM | ≤ 2 s⁻¹
31 | B31 | ≤ 1000 nM | ≤ 2 s⁻¹
32 | B32 | ≤ 1000 nM | ≤ 2 s⁻¹
33 | B33 | ≤ 1000 nM | ≤ 2 s⁻¹
34 | B34 | ≤ 1000 nM | ≤ 2 s⁻¹
35 | B35 | ≤ 1000 nM | ≤ 2 s⁻¹
36 | B36 | ≤ 1000 nM | ≤ 2 s⁻¹
37 | B37 | ≤ 1000 nM | ≤ 2 s⁻¹
38 | B38 | ≤ 1000 nM | ≤ 2 s⁻¹
39 | B39 | ≤ 1000 nM | ≤ 2 s⁻¹
40 | B40 | ≤ 1000 nM | ≤ 2 s⁻¹
41 | B41 | ≤ 1000 nM | ≤ 2 s⁻¹
42 | B42 | ≤ 1000 nM | ≤ 2 s⁻¹
43 | B43 | ≤ 1000 nM | ≤ 2 s⁻¹
44 | B44 | ≤ 1000 nM | ≤ 2 s⁻¹
45 | B45 | ≤ 1000 nM | ≤ 2 s⁻¹
46 | B46 | ≤ 1000 nM | ≤ 2 s⁻¹
47 | B47 | ≤ 1000 nM | ≤ 2 s⁻¹
48 | B48 | ≤ 1000 nM | ≤ 2 s⁻¹
49 | B49 | ≤ 1000 nM | ≤ 2 s⁻¹
50 | B50 | ≤ 1000 nM | ≤ 2 s⁻¹
